Square brackets hold non-standard residues; d marks the D form. Peptide text beside a SMILES is read from it. * marks the point of attachment. F2Pmp = N[C@@H](Cc1ccc(C(F)(F)P(=O)(O)O)cc1)C(=O)O; Bz = O=C(c1ccccc1)*
Assays:
[1] = molecular target: GST-PTP1B, mutated (Ser215): GST-PTP-1B Cys215Ser mutant, human PTP1B amino acids 1-320 fused to GST (human); experiment: SPA competition binding assay against tritiated BzN-EJJ-CONH2, GST-PTP1B mutated (Ser215)
[2] = molecular target: GST-PTP1B, non-mutated (Cys215): human recombinant PTP1B amino acids 1-320 fused to GST enzyme (glutathione S-transferase) (human); experiment: SPA competition binding assay against tritiated BzN-EJJ-CONH2, GST-PTP1B non-mutated (Cys215)
[3] = molecular target: T1, human recombinant GST-PTP1B, mutated (Ser215) (Homo sapiens, UniProt P18031, C215S); experiment: GST-PTP1B SPA binding assay with mutated enzyme (Ser215)
T1 construct: Human recombinant PTP1B, containing amino acids 1-320; made in house; host or cells: bacteria (E. coli DH5alpha named for the transformation)
T1 sequence (P18031 1-320 C215S): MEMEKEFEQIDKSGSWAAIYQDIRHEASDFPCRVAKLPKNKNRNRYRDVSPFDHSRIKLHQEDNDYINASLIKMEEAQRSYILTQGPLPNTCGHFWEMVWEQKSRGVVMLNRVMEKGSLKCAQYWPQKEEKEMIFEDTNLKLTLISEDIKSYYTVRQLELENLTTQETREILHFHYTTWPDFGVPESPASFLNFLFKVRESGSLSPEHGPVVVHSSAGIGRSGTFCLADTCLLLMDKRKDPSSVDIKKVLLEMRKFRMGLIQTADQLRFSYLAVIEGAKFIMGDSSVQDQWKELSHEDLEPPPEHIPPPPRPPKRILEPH
Description: (§1) ID No. 7) contains active site serine(215).
(§2) IC50 Binding Assay Protocol
(§3) To each well is added the following solutions @ 25° C. in the following chronological order:
(§4) 1. 110 μl of assay buffer.
(§5) 3. 10 μl. of testing compound in DMSO at 10 different concentrations in serial dilution (final DMSO, about 5% v/v) in duplicate @ 25° C.
(§6) 4. 10 μl. of 3.75 μg/ml purified human recombinant GST-PTP1B in enzyme dilution buffer.
(§7) 5. The plate is shaken for 2 minutes.
(§8) 6. 10 μl. of 0.3 μg/ml anti-glutathione S-transferase (anti-GST) rabbit IgG (Molecular Probes) diluted in antibody dilution buffer @ 25° C.
(§9) 7. The plate is shaken for 2 minutes.
(§10) 8. 50 μl. of protein A-PVT SPA beads (Amersham) @ 25° C.
(§11) 9. The plate is shaken for 5 minutes. The binding signal is quantified on a Microbeta 96-well plate counter.
(§12) 10. The non-specific signal is defined as the enzyme-ligand binding in the absence of anti-GST antibody.
(§13) 11. 100% binding activity is defined as the enzyme-ligand binding in the presence of anti-GST antibody, but in the absence of the testing ligands with the non-specific binding subtracted.
(§14) 12. Percentage of inhibition is calculated accordingly.
(§15) 13. IC50 value is approximated from the non-linear regression fit with the 4-parameter/multiple sites equation (described in: "Robust Statistics", New York, Wiley, by P. J. Huber (1981) and reported in nM units.

PTP1B = experiment: inhibition of PTP1B; type: biochemical; settings: type of constant not stated
[4] = molecular target: T2, human recombinant GST-PTP1B, non-mutated (Cys215) (Homo sapiens, UniProt P18031); experiment: GST-PTP1B SPA binding assay with non-mutated (Cys215) enzyme; settings: read-out: % inhibition, Non-Mutated
T2 construct: Human recombinant PTP1B, containing amino acids 1-320; made in house; host or cells: E. coli
T2 sequence (P18031 1-320): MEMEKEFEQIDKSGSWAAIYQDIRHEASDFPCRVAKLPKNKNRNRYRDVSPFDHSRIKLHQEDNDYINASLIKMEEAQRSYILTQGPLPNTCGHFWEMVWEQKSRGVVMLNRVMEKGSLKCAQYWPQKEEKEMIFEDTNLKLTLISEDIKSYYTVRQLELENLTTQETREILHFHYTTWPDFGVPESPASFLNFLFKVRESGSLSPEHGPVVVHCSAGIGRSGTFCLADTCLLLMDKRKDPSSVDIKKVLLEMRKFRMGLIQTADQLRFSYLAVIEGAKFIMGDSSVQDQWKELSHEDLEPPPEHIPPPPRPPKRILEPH
Description: as §1, §2, §3, §4, §5, §6, §7, §8, §9, §10, §11, §12, §13, §14, §15

[5] = molecular target: T3, GST-PTP1B, non-mutated (Cys215): human recombinant PTP1B amino acids 1-320 fused to GST enzyme (glutathione … (human)); experiment: SPA competition binding assay against tritiated BzN-EJJ-CONH2, GST-PTP1B non-mutated (Cys215)
T3 chain: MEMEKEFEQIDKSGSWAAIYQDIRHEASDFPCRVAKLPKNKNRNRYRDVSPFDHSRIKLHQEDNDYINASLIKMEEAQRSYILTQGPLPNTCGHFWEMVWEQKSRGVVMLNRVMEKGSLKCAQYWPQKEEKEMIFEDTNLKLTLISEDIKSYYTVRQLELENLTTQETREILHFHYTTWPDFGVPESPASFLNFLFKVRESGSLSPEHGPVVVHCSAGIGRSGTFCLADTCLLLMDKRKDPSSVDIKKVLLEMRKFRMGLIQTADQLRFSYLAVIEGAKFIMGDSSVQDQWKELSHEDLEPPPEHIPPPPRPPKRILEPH
Description: 1. 110 μl of assay buffer. 2. […] 3. 10 μl. of testing compound in DMSO at 10 different concentrations in serial dilution (final DMSO, about 5% v/v) in duplicate @ 25° C. 4. 10 μl. of 3.75 μg/ml purified human recombinant GST-PTP1B in enzyme dilution buffer. 5. The plate is shaken for 2 minutes. 6. 10 μl. of 0.3 μg/ml anti-glutathione S-transferase (anti-GST) rabbit IgG (Molecular Probes) diluted in antibody dilution buffer @ 25° C. 7. The plate is shaken for 2 minutes. 8. 50 μl. of protein A-PVT SPA beads (Amersham) @ 25° C. 9. The plate is shaken for 5 minutes. The binding signal is quantified on a Microbeta 96-well plate counter. 10. The non-specific signal is defined as the enzyme-ligand binding in the absence of anti-GST antibody. 11. 100% binding activity is defined as the enzyme-ligand binding in the presence of anti-GST antibody, but in the absence of the testing ligands with the non-specific binding subtracted. 12. Percentage of inhibition is calculated accordingly.

[6] = molecular target: PTP1B tyrosine phosphatase (construct not stated) (human)
[7] = phosphatase activity of expressed PTP-1B constructs; type: biochemical; settings: expressed (E. coli for GST-PTP-1B) protein
From the text: The full length human PTP-1B cDNA sequence (published in J. Chernoff et al., PNAS, USA, supra) cloned into a PET vector was obtained from Dr. Raymond Erickson (Harvard University). The PTP-1B CDNA sequence encoding amino acids 1-320 (Seq. ID No. 1) was amplified by PCR using the full length sequence as template. […] The amplified fragment was cloned into pCR2 (Invitrogen) and sequenced to insure that no sequence errors had been introduced by Taq polymerase during the amplification. This sequence was released from pCR2 by a Bam HI/Eco RI digest and the PTP-1B cDNA fragment ligated into the GST fusion vector pGEX-2T (Pharmacia) that had been digested with the same enzymes. […] This same 1-320 PTP-1B sequence (Seq. ID No. 1) was then cloned into the expression vector pFLAG-2, where FLAG is the octa-peptide […] This was done by releasing the PTP-1B sequence from the pGEX-2T vector by Nco I/Eco RI digest, filling in the ends of this fragment by Klenow and blunt-end ligating into the blunted Eco RI site of pFLAG2. Site-directed mutagenesis was performed on pFLAG2-PTP-1B plasmid using the Chameleon (Stratagene) double-stranded mutagenesis kit from Stratagene, to replaced the active-site Cys-215 with serine. The mutagenesis was carried out essentially as described by the manufacturer and mutants identifed by DNA sequencing. […]

[8] = read-out: % inhibition, Mutated

Work on DADE(F2PMP)L hexapeptide yielded an IC50 [1] of 0.1 µM and an IC50 [2] of 0.4 µM.

In the case of `NC(=O)[C@H](Cc1ccc(C(F)(F)P(=O)(O)O)cc1)NC(=O)[C@H](Cc1ccc(C(F)(F)P(=O)(O)O)cc1)NC(=O)[C@H](CCC(=O)O)NC(=O)c1ccccc1` [BzN-EJJ-CONH2, N-Benzoyl-L-glutamyl-[4-phosphono(difluoromethyl)]-L-phenylalanyl-[4-phosphono(difluoromethyl)]-L-phenylalanineamide] (Bz-Glu-[F2Pmp]-[F2Pmp]-NH2), the “binding of substrate analog to mutated enzyme” value ([3]; mutated enzyme, truncated, amino acids 1-320) is reported as “high affinity” and the “active inhibitor of PTP1B” value (PTP1B) is reported as 5 nM.

`COc1cc(OC)c(OC)cc1CCN=CCc1ncc[nH]1` [Amine] gave an inhibition at 2 µM [4] of 67% and an inhibition at 2 µM [3, 8] of 10%.

Work on `OO` [Hydrogen peroxide] yielded an inhibition at 83 µM [4] of 90% and an inhibition at 83 µM [3, 8] of 0%.

Molecule Bz-Glu-[F2Pmp]-[F2Pmp]-NH2 has an IC50 [1] of 0.008 µM, an IC50 [5] of 0.014 µM and an inhibitor of PTP1B [6] of 5 nM.

B1: FLAG-PTP-1B Cys215Ser mutant: FLAG-tagged PTP-1B with active-site Cys-215 replaced with serine (Seq. ID No. 7) (protein, UniProt P18031 1-435, looked up, variant C215S)
Tyrosine-protein phosphatase …: MEMEKEFEQIDKSGSWAAIYQDIRHEASDFPCRVAKLPKNKNRNRYRDVSPFDHSRIKLHQEDNDYINASLIKMEEAQRSYILTQGPLPNTCGHFWEMVWEQKSRGVVMLNRVMEKGSLKCAQYWPQKEEKEMIFEDTNLKLTLISEDIKSYYTVRQLELENLTTQETREILHFHYTTWPDFGVPESPASFLNFLFKVRESGSLSPEHGPVVVHSSAGIGRSGTFCLADTCLLLMDKRKDPSSVDIKKVLLEMRKFRMGLIQTADQLRFSYLAVIEGAKFIMGDSSVQDQWKELSHEDLEPPPEHIPPPPRPPKRILEPHNGKCREFFPNHQWVKEETQEDKDCPIKEEKGSPLNAAPYGIESMSQDTEVRSRVVGGSLRGAQAASPAKGEPSLPEKDEDHALSYWKPFLVNMCVATVLTAGAYLCYRFLFNSNT
modifications: FLAG tag
With B1 the phosphatase activity [7] was “not to have any phosphatase activity”.

B2: GST-PTP-1B fusion protein: PTP-1B amino acids 1-320 fused to GST, expressed in E. Coli (protein)
chain: MEMEKEFEQIDKSGSWAAIYQDIRHEASDFPCRVAKLPKNKNRNRYRDVSPFDHSRIKLHQEDNDYINASLIKMEEAQRSYILTQGPLPNTCGHFWEMVWEQKSRGVVMLNRVMEKGSLKCAQYWPQKEEKEMIFEDTNLKLTLISEDIKSYYTVRQLELENLTTQETREILHFHYTTWPDFGVPESPASFLNFLFKVRESGSLSPEHGPVVVHCSAGIGRSGTFCLADTCLLLMDKRKDPSSVDIKKVLLEMRKFRMGLIQTADQLRFSYLAVIEGAKFIMGDSSVQDQWKELSHEDLEPPPEHIPPPPRPPKRILEPH
In the case of B2, the phosphatase activity [7] is reported as “active protein tyrosine phosphatase activity”.

From US6114132A, “Prosphatase binding assay” (Merck Frosst Canada & Co., priority 1997, dated 2000)
